# Results as given in patent publication US20240173424A1, “ANTI-NECTIN-4-ANTIBODY EXATECAN CONJUGATES” (EMERGENCE THERAPEUTICS AG, priority 2021, published 2024).
# What was measured:
# Format in all cases: binding
# [1] = target: T1, Nectin-4 expressed by normal differentiated human keratinocytes (NHEK) (Homo sapiens, UniProt Q96NY8); test: Flow cytometry on normal differentiated human keratinocytes (NHEK); details: dose range 8 PM-33 nM
# T1 construct: Cells or cell lines (10,000-50,000) expressing Nectin-4 (naturally or transfected); endogenous in cells; host or cells: NHEK, differentiated with 0.1 mM CaCl2
# T1 sequence (Q96NY8 32-510): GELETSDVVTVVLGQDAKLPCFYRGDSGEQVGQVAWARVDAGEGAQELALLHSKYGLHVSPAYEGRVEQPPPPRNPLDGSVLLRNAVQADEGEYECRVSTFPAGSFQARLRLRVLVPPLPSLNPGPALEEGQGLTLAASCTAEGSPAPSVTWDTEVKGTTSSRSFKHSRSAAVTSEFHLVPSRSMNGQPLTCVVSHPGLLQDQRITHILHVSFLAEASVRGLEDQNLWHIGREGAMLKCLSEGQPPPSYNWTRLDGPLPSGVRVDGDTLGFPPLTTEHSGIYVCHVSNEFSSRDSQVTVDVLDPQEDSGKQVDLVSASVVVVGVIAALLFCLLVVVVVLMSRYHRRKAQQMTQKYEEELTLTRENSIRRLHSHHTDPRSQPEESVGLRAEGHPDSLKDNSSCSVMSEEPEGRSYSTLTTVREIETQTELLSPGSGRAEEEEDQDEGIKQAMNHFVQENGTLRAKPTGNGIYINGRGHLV
# Description: FIG. 15: Differential binding of Ch-15A7.5 and its humanized variants to Nectin-4 expressed by tumor cell line and normal differentiated human keratinocytes. Detection by flow cytometry.
# Flow cytometry analysis of TNBC cell line (SUM190, upper panels) and normal differentiated (0.1 mM CaCl2) human keratinocytes (NHEK, lower panels) using a dose range (8 PM-33 nM) of Ch-5A12.2, Ch-15A7.5 and its humanized variants 15A7.5-H1L2, -H1L3, -H2L2, -H2L3, -H3LO, -H3L2, -H3L3. Cells were then stained with phycoerythrin conjugate goat anti human Fc antibody. Normalized mean fluorescence intensities are shown. Non-linear curve fitting (4 parameters) was done with GraphPad Prism 9 software.
# Cells or cell lines (10,000-50,000) expressing Nectin-4 (naturally or transfected) were incubated with dose range of the indicated antibodies. After washing, cells were then stained with phycoerythrin-conjugated goat anti human antibody (5 μg/mL) Jackson Immuno Research). After fixation, cells were stained with a viability dye (e780, Invitrogen) before flow cytometry acquisition.
# [2] = target: T2, Nectin-1 extracellular domain (Homo sapiens, UniProt Q15223); test: ELISA on coated Nectin-1 extracellular domain Fc fusion protein (Nec1-VCC)
# T2 construct: Nectin-1 extracellular domain Fc fusion recombinant protein (Nec1-VCC)
# T2 sequence (Q15223 31-355 limits assumed): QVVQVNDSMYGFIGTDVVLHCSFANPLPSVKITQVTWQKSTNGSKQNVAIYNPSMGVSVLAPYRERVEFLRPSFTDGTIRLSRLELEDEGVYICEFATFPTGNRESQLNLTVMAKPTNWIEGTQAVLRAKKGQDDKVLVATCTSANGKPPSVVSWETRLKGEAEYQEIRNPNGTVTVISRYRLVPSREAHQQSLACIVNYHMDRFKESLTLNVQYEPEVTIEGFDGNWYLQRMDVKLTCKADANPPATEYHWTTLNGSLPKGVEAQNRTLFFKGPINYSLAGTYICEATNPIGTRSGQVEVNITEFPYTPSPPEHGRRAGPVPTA
# Description: (§1) Detection by ELISA. • Ninety-six-wells plates were coated, as indicated, with 5 μg/mL Nectin-1 extracellular domain Fc fusion recombinant protein (Nec1-VCC), or Nectin-4 IgV-like domain Fc fusion recombinant protein (Nec4-V), or Nectin-4 extracellular domain Fc fusion recombinant protein (Nec4-VCC) overnight at 4° ° C.
# (§2) A sandwich enzyme-linked immunosorbent assay was used to control specificity of Ch-15A7.5 antibody and to perform competition assays between different mAbs. Ninety-six-wells plates were coated with 10 nM of Nectin-4-VCC-Fc, Nectin-1-VCC-Fc (entire extracellular part) or Nectin-4-V-Fc (comprising only the IgV domain) overnight at +4° C. After washes and saturation with PBS 1% BSA, cells were incubated for 2 hours at 25° C. with 10 nM of peroxidase-conjugated Ch-15A7.5 mAb. In the case of competition, binding of 0.5 nM of peroxidase conjugated Ch-15A7.5 mAb was measured in the presence of variable concentration (0.018 nM to 40 nM) of “cold” mAb. One hundred μL of peroxidase substrate was added (One Step ABST, Pierce), and OD was red at 405 nm.
# human Nectin-4 [3] = test: Flow cytometry of MDA-MB231 transfected with Flag-tagged Nectin-4; details: MDA-MB231 transfected with Nectin-4, 0.3 ng/ml-5 μg/mL
# Description: Detection by flow cytometry. • Flow cytometry analysis of MDA-MB231 transfected with the N-terminal Flag-tagged epitope of Nectin-4 using a dose range (0.3 ng/ml-5 μg/mL) of Ch-15A7.5 or Ch-5A12.2 antibodies Parental MDA-MB231 cells are included as controls. Cells were then stained with phycoerythrin conjugate goat anti human Fc antibody. The normalized mean fluorescence intensity is shown. Inlay: staining of parental MDA-MB231 cells with anti Nectin-1, -2 and -3 mAbs ([…]). Mean fluorescence intensity is represented.
# Human breast carcinoma cell line MDA-MB231 (ATCC, Manassas, VA) was cultured in DMEM supplemented with 10% fetal bovine serum, 50 IU/mL penicillin, 50 μg/mL streptomycin and 2 mM glutamine. The cells were transfected with expression vector p3XFLR4.C1 containing a PVRL4 cDNA. Human triple negative breast cancer cell line SUM190PT (BioIVT, Westbury, NY) was cultures in Ham's F12 medium with 5% fetal bovine serum, 1% non-essential amino acids, 1% Hepes, 1% insulin, 1 μg/mL hydrocortisone, 6.8 ng/ml Triiodo L-tyrosine, 100 IU/mL penicillin, 100 μg/mL streptomycin and 2 mM glutamine. Chinese hamster ovary CHO cell line was cultured in DMEM supplemented with 10% fetal bovine serum, 100 IU/mL penicillin, 100 μg/mL streptomycin and 2 mM glutamine. […]
# human Nectin-4 [4] = test: ELISA on coated Nectin-4 Fc fusion proteins (Nec4-VCC, Nec4-V); details: ELISA
# Description: as §1
# FIG. 3: Characterization of Ch-15A7.5 epitope. Competition assay was performed by ELISA. • Ninety-six-wells plates were coated with 5 μg/mL of Nectin-4 extracellular domain Fc fusion recombinant protein (Nec4-VCC) overnight at 4° C. Binding of peroxidase-conjugated Ch-15A7.5 mAb (5 μg/mL) was measured in presence of increasing concentrations (2.75 ng/ml-6 μg/mL) of Rituximab, Ch-15A7 mAb, Enfortumab (HA22), Ch-N41 mAb and Ch-14A5 mAb.
# as §2
molecule,measurement,setting,value
"Ch-15A7.5: chimeric antibody of 15A7.5 with Fc-silent human Fc (antibody, V domains shown) VH: EVKLVESGGGLVQPGGSRKLSCAASGFTFSNYGMAWVRQAPGKGPEWVAFISNLAYGINYADTVTGRFTISRENAKNTLYLEMRSLRSEDTAMYYCARGARATGWFAYWGQGTLVTVSA VL: DIVMTQSQKFMSTSIGDRVSVTCKASQNVDTHVAWYQEKPGQSPKALIYSASYRYSGVPDRFTGSGSGTDFTLTISNVQSEDLADYFCQQYNSYPLTFGGGTKLEIK",apparent EC50 towards keratinocytes in comparison to that of Ch-5A12.2,[1],much lower apparent EC50
same,recognition of Nectin-1 extracellular domain,[2],not the Nectin-1 extracellular domain
same,recognition of human Nectin-4,human Nectin-4 [3],recognize human Nectin-4
same,recognition of Nectin-4 IgV-like domain,human Nectin-4 [4]; Nec4-V coated,recognizes IgV-like domain of human Nectin-4
same,recognition of Nectin-4 extracellular domain,human Nectin-4 [4]; Nec4-VCC coated,recognizes the Nectin-4 extracellular domain
